Literature values in publication PMC5650668.
Where two headings read alike, the source gives them in different places.

Experiments:
[1] = target: ω-agatoxin IVA (Agelenopsis aperta) (UniProt P30288)
[2] = target: ω-agatoxin IVA (Agelenopsis aperta) (UniProt P30288); remark: listed apart in the source

UniProt P30288, sequence (P30288 whole entry): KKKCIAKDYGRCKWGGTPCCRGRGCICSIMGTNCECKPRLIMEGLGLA

Row | Substance | Kd [1] [nM] | Kd [2] [nM]
1 | Cav2.1 (P current component) (from UniProt P54282) | 2 | 
2 | Cav2.1 (Q current component) (from UniProt P54282) |  | > 100
